One assay concerns the target T1, soluble human CD3ε chain (human, UniProt P07766 23-126, limits assumed).
T1 construct: also called human CD3 epsilon chain
Put plainly: SPR (Biacore), soluble human CD3ε chain. In general terms: SPR reads the build-up and loss of mass on a sensor chip optically.

For a further assay, the target named is T2, soluble human GPC3 (human, UniProt P51654 25-563, limits assumed).
T2 construct: also called glypican 3
Put plainly: SPR (Biacore), single-arm antibody, soluble human GPC3.

Where a chain is given by its changes, count along the chain named. Values joined by “and” are separate entries in the source; they are usually repeats but may differ in a detail not shown here. Identical values can stand only once.

T2 sequence (P51654 other isoform, or with tags, fused parts or gaps limits assumed, form in doubt): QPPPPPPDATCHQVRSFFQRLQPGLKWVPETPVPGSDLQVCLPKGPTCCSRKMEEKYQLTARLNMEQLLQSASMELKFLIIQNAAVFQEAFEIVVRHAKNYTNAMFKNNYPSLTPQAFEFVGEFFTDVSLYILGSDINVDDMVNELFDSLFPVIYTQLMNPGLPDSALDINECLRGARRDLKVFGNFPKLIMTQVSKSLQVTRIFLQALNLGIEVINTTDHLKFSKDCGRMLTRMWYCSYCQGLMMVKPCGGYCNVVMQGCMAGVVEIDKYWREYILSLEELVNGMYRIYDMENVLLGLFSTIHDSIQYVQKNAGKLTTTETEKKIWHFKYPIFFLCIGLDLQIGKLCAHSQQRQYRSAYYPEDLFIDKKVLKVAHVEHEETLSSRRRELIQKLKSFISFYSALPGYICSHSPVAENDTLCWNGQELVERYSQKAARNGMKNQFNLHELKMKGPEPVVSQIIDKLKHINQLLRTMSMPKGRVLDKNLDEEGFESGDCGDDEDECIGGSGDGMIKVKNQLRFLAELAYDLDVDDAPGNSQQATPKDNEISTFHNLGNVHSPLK
T1 sequence (P07766 23-126 limits assumed): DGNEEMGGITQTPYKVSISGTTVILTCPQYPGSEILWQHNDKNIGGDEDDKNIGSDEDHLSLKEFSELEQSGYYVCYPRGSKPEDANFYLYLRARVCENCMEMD

B1: TR01H109-E22Hh/none-Hi-Kn010G3/L0011-k0 (antibody, human IgG1, kappa, L234A L235A, N297A)
heavy: QVQLVESGGGLVQPGRSLRLSCAASGFTFSNAWMHWVRQAPGKGLEWVAQIKDKSQNYATYVAESVKGRFTISRDDSKNSLYLQMNSLKTEDTAVYYCRYVHYAAGYGVDAWGQGTTVTVSSASTKGPSVFPLAPSSKSTSGGTAALGCLVKDYFPEPVTVSWNSGALTSGVHTFPAVLQSSGLYSLSSVVTVPSSSLGTQTYICNVNHKPSNTKVDKKVEPKSCDKTHTCPPCPAPEAAGGPSVFLFPPKPKDTLMISRTPEVTCVVVDVSHEDPEVKFNWYVDGVEVHNAKTKPREEQYASTYRVVSVLTVLHQDWLNGKEYKCKVSNKALPAPIEKTISKAKGQPREPQVYTLPPSRCELTKNQVSLSCAVKGFYPSDIAVEWESNGQPENNYKTTPPVLDSDGSFFLVSKLTVDKSRWQQGNVFSCSVMHEALHNHYTQKSLSLSPDYKDDDDK
chain: EPKSSDKTHTCPPCPAPELLGGPSVFLFPPKPKDTLMISRTPEVTCVVVDVSHEDPEVKFNWYVDGVEVHNAKTKPREEQYNSTYRVVSVLTVLHQDWLNGKEYKCKVSNKALPAPIEKTISKAKGQPREPQVCTLPPSRDELTKNQVSLWCLVKGFYPSDIAVEWESNGQPENNYKTTPPVLDSDGSFFLYSKLTVDKSRWQQGNVFSCSVMHEALHNRYTQKSLSLSP
light: DIVMTQSPLSLPVTPGEPASISCRSSQPLVHSNRNTYLHWYQQKPGQAPRLLIYKVSNRFSGVPDRFSGSGSGTDFTLKISRVEAEDVGVYYCGQGTQVPYTFGQGTKLEIKRTVAAPSVFIFPPSDEQLKSGTASVVCLLNNFYPREAKVQWKVDNALQSGNSQESVTEQDSKDSTYSLSSTLTLSKADYEKHKVYACEVTHQGLSSPVTKSFNRGEC
notes: one-arm antibody (single Fab) with Fab-less hinge-Fc chain Hi-Kn010G3
What is called Kd is the free concentration of one partner at which half of the binding sites on the other are occupied at equilibrium, for simple one-to-one binding. The low end stands for tighter binding, the high end for weaker binding. In the assay with soluble human CD3ε chain, B1 came in with an equilibrium dissociation constant (Kd) of 70.6 nM.

B2: rCE115H-E22Hh/none-Hi-Kn010G3/L0000-k0 (antibody, human IgG1, kappa, L234A L235A, N297A)
heavy: EVQLVETGGSLVQPGKSLKLTCATSGFTFSNAWMHWVRQSPEKQLEWVAQIKAKSNNYATYYAESVKGRFTISRDDSKSNIYLQMNSLKEEDTAVYYCRYVHYGAYYGVDAWGQGTSVTVSSASTKGPSVFPLAPSSKSTSGGTAALGCLVKDYFPEPVTVSWNSGALTSGVHTFPAVLQSSGLYSLSSVVTVPSSSLGTQTYICNVNHKPSNTKVDKKVEPKSCDKTHTCPPCPAPEAAGGPSVFLFPPKPKDTLMISRTPEVTCVVVDVSHEDPEVKFNWYVDGVEVHNAKTKPREEQYASTYRVVSVLTVLHQDWLNGKEYKCKVSNKALPAPIEKTISKAKGQPREPQVYTLPPSRCELTKNQVSLSCAVKGFYPSDIAVEWESNGQPENNYKTTPPVLDSDGSFFLVSKLTVDKSRWQQGNVFSCSVMHEALHNHYTQKSLSLSPDYKDDDDK
chain: B1 chain
light: B1 light with P28S
notes: as for B1
As for B2, the Kd with soluble human CD3ε chain is 80 nM.

B3: TR01H015-E22Hh/none-Hi-Kn010G3/TR01L006-k0 (antibody, human IgG1, kappa, L234A L235A, N297A)
heavy: B1 heavy with D53G, Q56N, V62Y, D75A, L81I, A104S, G106S, A111I
chain: B1 chain
light: B1 light with R24Q, S25A, Q27E, P28S, Q42L, A48S, R50Q, L109V, K112E
notes: as for B1
As to B3, in the assay with soluble human CD3ε chain, the dissociation constant Kd stood at 93 nM.

B4: rCE115H-E22Hh/none-Hi-Kn010G3/rCE115L-k0 (antibody, human IgG1, kappa, L234A L235A, N297A)
heavy: B2 heavy
chain: B1 chain
light: DVVMTQTPVSMSVSLGGQVSISCRSSQSLVHNNGNTYVSWYIQKPSQSPQLLIYKVSNRFSGISDRFSGSGSGTDFTLKISRVEPDDLGVYYCGQGTQDPYTFGAGTKLELKRTVAAPSVFIFPPSDEQLKSGTASVVCLLNNFYPREAKVQWKVDNALQSGNSQESVTEQDSKDSTYSLSSTLTLSKADYEKHKVYACEVTHQGLSSPVTKSFNRGEC
notes: one-arm antibody (single Fab) with Fab-less hinge-Fc chain Hi-Kn010G3; also called rCE115H-E22Hh//-Hi-Kn010G3/rCE115L-k0
Take B4: in the assay with soluble human CD3ε chain, the Kd was 124 nM and 138 nM.

B5: rCE115H-E22Hh/none-Hi-Kn010G3/L0000vk1-k0 (antibody, human IgG1, kappa, L234A L235A, N297A)
heavy: B2 heavy
chain: B1 chain
light: DIQMTQSPSSLSASVGDRVTITCRSSQSLVHSNRNTYLHWYQQKPGKAPKLLIYKVSNRFSGVPSRFSGSGSGTDFTFTISSLQPEDIATYYCGQGTQVPYTFGQGTKVEIKRTVAAPSVFIFPPSDEQLKSGTASVVCLLNNFYPREAKVQWKVDNALQSGNSQESVTEQDSKDSTYSLSSTLTLSKADYEKHKVYACEVTHQGLSSPVTKSFNRGEC
notes: as for B1
Consider B5, for which the affinity in the assay with soluble human CD3ε chain, expressed as Kd, was 85.2 nM.

B6: GCH023-G1dh/none-Hi-Kn010G3/L0000-k0 (antibody, human IgG1, kappa)
heavy: not shown
chain: B1 chain
light: B1 light with P28S
notes: single-arm antibody
In turn, B6 registered an equilibrium dissociation constant (Kd) in the assay with soluble human GPC3 of 4.94 nM.

B7: GCH034-G1dh/none-Hi-Kn010G3/L0000-k0 (antibody, human IgG1, kappa)
heavy: not shown
chain: B1 chain
light: B1 light with P28S
notes: single-arm antibody
For B7, in the assay with soluble human GPC3, the dissociation constant Kd was determined as 5.09 nM.

B8: GCH055-G1dh/none-Hi-Kn010G3/L0000-k0 (antibody, human IgG1, kappa)
heavy: not shown
chain: B1 chain
light: B1 light with P28S
notes: single-arm antibody
B8 gave a dissociation constant (Kd) with soluble human GPC3 of 5.6 nM.

B9: GCH061-G1dh/none-Hi-Kn010G3/L0000-k0 (antibody, human IgG1, kappa)
heavy: not shown
chain: B1 chain
light: B1 light with P28S
notes: single-arm antibody
Molecule B9 registered a Kd with soluble human GPC3 of 5.13 nM.

B10: GCH026-G1dh/none-Hi-Kn010G3/L0000-k0 (antibody, human IgG1, kappa)
heavy: not shown
chain: B1 chain
light: B1 light with P28S
notes: single-arm antibody
For the molecule B10, in the assay with soluble human GPC3, the dissociation constant (Kd) was 5.17 nM.

B11: GCH056-G1dh/none-Hi-Kn010G3/L0011-k0 (antibody, human IgG1, kappa)
heavy: not shown
chain: B1 chain
light: B1 light
notes: single-arm antibody
In the assay with soluble human GPC3, B11 yielded a Kd of 4.31 nM.

B12: GCH032-G1dh/none-Hi-Kn010G3/L0000-k0 (antibody, human IgG1, kappa)
heavy: not shown
chain: B1 chain
light: B1 light with P28S
notes: single-arm antibody
In turn, B12 yielded a Kd in the assay with soluble human GPC3 of 5.74 nM.

B13: GCH003-G1dh/none-Hi-Kn010G3/L0000-k0 (antibody, human IgG1, kappa)
heavy: not shown
chain: B1 chain
light: B1 light with P28S
notes: single-arm antibody
As to B13, the affinity in the assay with soluble human GPC3, expressed as Kd, was 5.2 nM.

B14: GCH012-G1dh/none-Hi-Kn010G3/L0000-k0 (antibody, human IgG1, kappa)
heavy: not shown
chain: B1 chain
light: B1 light with P28S
notes: single-arm antibody
B14 gave a dissociation constant Kd in the assay with soluble human GPC3 of 5.4 nM.

B15: GCH067-G1dh/none-Hi-Kn010G3/L0000-k0 (antibody, human IgG1, kappa)
heavy: not shown
chain: B1 chain
light: B1 light with P28S
notes: single-arm antibody
In the assay with soluble human GPC3, B15 gave an equilibrium dissociation constant (Kd) of 5.24 nM.

B16: GCH008-G1dh/none-Hi-Kn010G3/L0000-k0 (antibody, human IgG1, kappa)
heavy: not shown
chain: B1 chain
light: B1 light with P28S
notes: single-arm antibody
B16 displayed a Kd with soluble human GPC3 of 5.55 nM.

B17: GCH059-G1dh/none-Hi-Kn010G3/L0000-k0 (antibody, human IgG1, kappa)
heavy: not shown
chain: B1 chain
light: B1 light with P28S
notes: single-arm antibody
Regarding B17, the equilibrium dissociation constant (Kd) with soluble human GPC3 amounted to 5.7 nM.

B18: hCE115HAa-E22Hh/none-Hi-Kn010G3/L0000-k0 (antibody, human IgG1, kappa, L234A L235A, N297A)
heavy: B1 heavy with L11V, R16G, D53A, Q56N, V62Y, A104G, G106Y
chain: B1 chain
light: B1 light with P28S
notes: as for B1
B18 had a Kd with soluble human CD3ε chain of 108 nM.

B19: hCE115HA-E22Hh/none-Hi-Kn010G3/L0000-k0 (antibody, human IgG1, kappa, L234A L235A, N297A)
heavy: B1 heavy with L11V, D53A, Q56N, V62Y, A104G, G106Y
chain: B1 chain
light: B1 light with P28S
notes: as for B1
In the case of B19, the affinity with soluble human CD3ε chain, expressed as Kd, was 124 nM.

B20: GCH054-G1dh/none-Hi-Kn010G3/L0000-k0 (antibody, human IgG1, kappa)
heavy: not shown
chain: B1 chain
light: B1 light with P28S
notes: single-arm antibody
In the case of B20, the Kd with soluble human GPC3 was 5.3 nM.

B21: GCH005-G1dh/none-Hi-Kn010G3/L0000-k0 (antibody, human IgG1, kappa)
heavy: not shown
chain: B1 chain
light: B1 light with P28S
notes: single-arm antibody
Regarding B21, the Kd with soluble human GPC3 is 5.32 nM.

B22: GCH056-G1dh/none-Hi-Kn010G3/L0000-k0 (antibody, human IgG1, kappa)
heavy: not shown
chain: B1 chain
light: B1 light with P28S
notes: single-arm antibody
In the assay with soluble human GPC3, B22 showed a dissociation constant Kd of 5.03 nM.

B23: GCH025-G1dh/none-Hi-Kn010G3/L0000-k0 (antibody, human IgG1, kappa)
heavy: not shown
chain: B1 chain
light: B1 light with P28S
notes: single-arm antibody
Molecule B23 came in with a Kd with soluble human GPC3 of 5.05 nM.

B24: GCH022-G1dh/none-Hi-Kn010G3/L0000-k0 (antibody, human IgG1, kappa)
heavy: not shown
chain: B1 chain
light: B1 light with P28S
notes: single-arm antibody
Consider B24, for which, in the assay with soluble human GPC3, the equilibrium dissociation constant (Kd) was 4.92 nM.

B25: GCH057-G1dh/none-Hi-Kn010G3/L0000-k0 (antibody, human IgG1, kappa)
heavy: not shown
chain: B1 chain
light: B1 light with P28S
notes: single-arm antibody
In the assay with soluble human GPC3, B25 showed a Kd of 5.61 nM.

Values taken from patent publication US20210388110A1 (published 2021).
